The target in assay [1] is HLA A2.1 molecule (human). Briefly: T2 cells, flow cytometry (BB7.2); reference I9V. A general note: Flow cytometry measures light scatter and fluorescence of single cells or particles in a stream.
Assay [2] concerns the target HLA A2.1 molecule (human). Briefly: T2 cells, flow cytometry (BB7.2); complex dissociation.

A value given as a limit tells only on which side of the number the result lay.

In turn, LLDTGADDTV (modifications not checked) [pol79] displayed an RA (relative affinity) in assay [1] of 10. Besides, the DC50 in assay [2] was < 2 h.

For KLTPLCVSL (modifications not checked) [K9L], the RA (relative affinity) in assay [1] worked out at 1.35. Moreover, the DC50 in assay [2] is > 6 h.

The values above are taken from patent US20040072240A1.
